Six molecules from US9051392 (dated 2015) can be followed below.

B3: Fas deletion 1-66 (protein)
chain: QVTDINSKGLELRKTVTTVETQNLEGLHHDGQFCHKPCPPGERKARDCTVNGDEPDCVPCQEGKEYTDKAHFSSKCRRCRLCDEGHGLEVEINCTRTQNTKCRCKPNFFCNSTVCEHCDPCTKCEHGIIKECTLTSNTKCKEEGSRSN

For the assay “Fas deletion 1-66”, the target named is B3. Description: FACS.
In assay [1] the target is T1, Fas Pt 2 (deletion 52-96) (human, UniProt P25445).
T1 chain: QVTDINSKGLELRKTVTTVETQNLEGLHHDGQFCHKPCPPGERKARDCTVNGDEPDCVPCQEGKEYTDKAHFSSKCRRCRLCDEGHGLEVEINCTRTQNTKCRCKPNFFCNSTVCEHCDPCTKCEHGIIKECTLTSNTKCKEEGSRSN
Description: FACS.

For another assay, the target named is T2, HA-Fas 1-210:GFP (human, UniProt P25445).
T2 chain: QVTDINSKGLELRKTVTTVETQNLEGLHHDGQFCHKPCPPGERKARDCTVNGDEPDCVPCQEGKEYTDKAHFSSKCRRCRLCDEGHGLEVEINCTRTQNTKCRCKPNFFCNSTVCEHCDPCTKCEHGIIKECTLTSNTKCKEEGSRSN
Kind of assay: other (co-immunoprecipitation).

The target of a further assay is T3, Fas (human, UniProt P25445).
T3 chain: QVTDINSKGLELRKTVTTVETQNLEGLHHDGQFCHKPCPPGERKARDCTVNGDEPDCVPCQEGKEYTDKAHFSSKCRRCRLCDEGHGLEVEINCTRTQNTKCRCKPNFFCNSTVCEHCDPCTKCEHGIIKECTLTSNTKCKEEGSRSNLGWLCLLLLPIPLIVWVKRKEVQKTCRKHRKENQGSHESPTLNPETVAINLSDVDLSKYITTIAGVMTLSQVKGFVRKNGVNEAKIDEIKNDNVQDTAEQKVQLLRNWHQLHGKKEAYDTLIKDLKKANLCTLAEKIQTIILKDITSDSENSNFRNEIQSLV
Kind of assay: other (co-immunoprecipitation).

In the next assay the target is T4, p60ΔCD-GFP-HA (human, UniProt P19438).
T4 chain: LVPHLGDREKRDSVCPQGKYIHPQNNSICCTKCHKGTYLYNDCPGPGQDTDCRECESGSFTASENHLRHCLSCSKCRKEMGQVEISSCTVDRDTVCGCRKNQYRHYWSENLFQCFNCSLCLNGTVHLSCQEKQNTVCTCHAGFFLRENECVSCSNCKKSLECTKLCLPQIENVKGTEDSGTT
Description: other (co-immunoprecipitation).

B1: Fas ligand (trimerized) (protein)
chain: PSPPPEKKELRKVAHLTGKSNSRSMPLEWEDTYGIVLLSGVKYKKGGLVINETGLYFVYSKVYFRGQSCNNLPLSHKVYMRNSKYPQDLVMMEGKMMSYCTTGQMWARSSYLGAVFNLTSADHLYVNVSELSLVNFEESQTFFGLYKL
In the case of B1, the binding result (in the assay with Fas deletion 1-66; in assay [1]) was “no binding” in each case.

B2: Fas deletion 1-43 (protein)
chain: QVTDINSKGLELRKTVTTVETQNLEGLHHDGQFCHKPCPPGERKARDCTVNGDEPDCVPCQEGKEYTDKAHFSSKCRRCRLCDEGHGLEVEINCTRTQNTKCRCKPNFFCNSTVCEHCDPCTKCEHGIIKECTLTSNTKCKEEGSRSN
Regarding B2, the binding result with HA-Fas 1-210:GFP is reported as “no binding”.
Same read-out and setting: in the case of B3 it was “no binding”.

B4: HVEMΔCD:GFP (protein)
chain: LPSCKEDEYPVGSECCPKCSPGYRVKEACGELTGTVCEPCPPGTYIAHLNGLSKCLQCQMCDPAMGLRASRNCSRTENAVCGCSPGHFCIVQDGDHCAACRAYATSSPGQRVQKGGTESQDTLCQNCPPGTFSPNGTLEECQHQTKCSWLVTKAGAGTSSSHWV
Regarding B4, in the assay with Fas, the binding result is given as “no binding”.

B5: p60ΔCD K32A (protein)
chain: LVPHLGDREKRDSVCPQGKYIHPQNNSICCTACHKGTYLYNDCPGPGQDTDCRECESGSFTASENHLRHCLSCSKCRKEMGQVEISSCTVDRDTVCGCRKNQYRHYWSENLFQCFNCSLCLNGTVHLSCQEKQNTVCTCHAGFFLRENECVSCSNCKKSLECTKLCLPQIENVKGTEDSGTT
As to B5, the binding result with p60ΔCD-GFP-HA is “no binding”.

B6: p60ΔCD KY19/20AA (protein)
chain: LVPHLGDREKRDSVCPQGAAIHPQNNSICCTKCHKGTYLYNDCPGPGQDTDCRECESGSFTASENHLRHCLSCSKCRKEMGQVEISSCTVDRDTVCGCRKNQYRHYWSENLFQCFNCSLCLNGTVHLSCQEKQNTVCTCHAGFFLRENECVSCSNCKKSLECTKLCLPQIENVKGTEDSGTT
For the molecule B6, in the assay with p60ΔCD-GFP-HA, the binding result is on record as “no binding”.
